Measurements taken from patent US20200317768A1 (published 2020).

T1: cynomolgus monkey FcγRIIb extracellular domain with C-terminal His-tag (cynomolgus monkey)
T1 construct: Expressed in FreeStyle 293 cells and purified; also called cyno FcγRIIb; cynoFcγRIIb; not shown: C-terminal His-tag
T1 chain: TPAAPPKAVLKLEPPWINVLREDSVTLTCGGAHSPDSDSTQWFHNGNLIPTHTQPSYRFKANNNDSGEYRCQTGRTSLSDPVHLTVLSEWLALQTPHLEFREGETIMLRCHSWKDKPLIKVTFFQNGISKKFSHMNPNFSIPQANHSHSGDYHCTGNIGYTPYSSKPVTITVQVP

T2: cynomolgus monkey FcγRIIIaS extracellular domain with C-terminal His-tag (cynomolgus monkey, UniProt Q8SPW2 21-206 at identity 1.00))
T2 construct: Expressed in FreeStyle 293 cells and purified; also called cyno FcγRIIIaS; cynoFcγRIIIaS; not shown: C-terminal His-tag
T2 chain: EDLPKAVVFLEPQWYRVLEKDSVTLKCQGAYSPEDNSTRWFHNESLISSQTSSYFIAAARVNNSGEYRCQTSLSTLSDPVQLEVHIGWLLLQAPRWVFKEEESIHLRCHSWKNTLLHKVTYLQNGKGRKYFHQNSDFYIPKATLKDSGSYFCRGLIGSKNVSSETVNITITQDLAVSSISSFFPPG

T3: cynomolgus monkey FcγRIIa2 extracellular domain with C-terminal His-tag (cynomolgus monkey)
T3 construct: Expressed in FreeStyle 293 cells and purified; also called cyno FcγRIIa2; cynoFcgRIIa2; not shown: C-terminal His-tag
T3 chain: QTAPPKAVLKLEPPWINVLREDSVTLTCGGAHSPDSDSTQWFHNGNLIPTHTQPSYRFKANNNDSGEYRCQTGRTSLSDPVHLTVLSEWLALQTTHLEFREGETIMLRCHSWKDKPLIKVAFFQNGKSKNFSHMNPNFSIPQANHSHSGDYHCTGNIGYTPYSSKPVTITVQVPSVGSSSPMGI

T4: human FcγRIIaR extracellular domain with C-terminal His-tag (human, UniProt P12318 34-217)
T4 construct: Expressed in FreeStyle 293 cells and purified; also called human FcγRIIa (type R); FcgRIIaR; not shown: C-terminal His-tag
T4 chain: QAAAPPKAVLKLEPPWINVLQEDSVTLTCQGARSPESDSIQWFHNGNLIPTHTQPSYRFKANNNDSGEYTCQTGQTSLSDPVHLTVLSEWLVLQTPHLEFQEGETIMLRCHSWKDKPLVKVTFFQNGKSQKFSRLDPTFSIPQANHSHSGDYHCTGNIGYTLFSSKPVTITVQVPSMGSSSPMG

T5: cynomolgus monkey FcγRIIa3 extracellular domain with C-terminal His-tag (cynomolgus monkey)
T5 construct: Expressed in FreeStyle 293 cells and purified; also called cyno FcγRIIa3; cynoFcgRIIa3; not shown: C-terminal His-tag
T5 chain: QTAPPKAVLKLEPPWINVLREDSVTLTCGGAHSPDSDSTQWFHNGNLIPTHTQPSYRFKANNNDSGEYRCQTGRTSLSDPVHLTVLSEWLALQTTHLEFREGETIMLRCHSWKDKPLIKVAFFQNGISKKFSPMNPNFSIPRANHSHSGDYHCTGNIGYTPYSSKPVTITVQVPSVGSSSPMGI

T6: human FcγRIIb extracellular domain with C-terminal His-tag (human, UniProt P31994 43-217)
T6 construct: Expressed in FreeStyle 293 cells and purified; also called humanFcgRIIb; not shown: C-terminal His-tag
T6 sequence: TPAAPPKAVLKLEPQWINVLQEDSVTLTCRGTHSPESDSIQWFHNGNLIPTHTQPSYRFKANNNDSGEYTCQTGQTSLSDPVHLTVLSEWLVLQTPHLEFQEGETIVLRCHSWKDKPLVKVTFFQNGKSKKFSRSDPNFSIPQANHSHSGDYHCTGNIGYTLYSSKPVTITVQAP

T7: human FcγRIIaH extracellular domain with C-terminal His-tag (human, UniProt P12318 34-217)
T7 construct: Expressed in FreeStyle 293 cells and purified; also called human FcγRIIa (type H); FcgRIIaH; not shown: C-terminal His-tag
T7 sequence: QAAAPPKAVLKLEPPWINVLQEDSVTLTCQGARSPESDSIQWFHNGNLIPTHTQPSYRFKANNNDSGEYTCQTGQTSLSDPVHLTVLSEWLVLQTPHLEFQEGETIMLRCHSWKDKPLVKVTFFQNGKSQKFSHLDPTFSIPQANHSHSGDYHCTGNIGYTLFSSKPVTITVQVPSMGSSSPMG

T8: cynomolgus monkey FcγRIIa1 extracellular domain with C-terminal His-tag (cynomolgus monkey)
T8 construct: Expressed in FreeStyle 293 cells and purified; also called cyno FcγRIIa1; cynoFcgRIIa1; not shown: C-terminal His-tag
T8 chain: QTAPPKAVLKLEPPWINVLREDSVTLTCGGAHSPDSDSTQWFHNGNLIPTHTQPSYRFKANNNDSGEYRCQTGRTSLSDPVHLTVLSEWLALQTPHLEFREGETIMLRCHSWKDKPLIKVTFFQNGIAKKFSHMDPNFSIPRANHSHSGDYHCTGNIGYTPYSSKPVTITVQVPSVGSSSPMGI

B1: M103205H795-MY200 / M103202L889-SK1 (antibody, human IgG1, kappa)
heavy: QVTLKESGPVLVKPTETLTLTCTVSGIDLSHDDISWVRQAPGKGLEWVGIISYAGSTYYASWAKGRLTISKDTSKNQVVLTMTNMDPVDTATYYCARGVPAYSHGGDLWGQGTLVTVSSASTKGPSVFPLAPSSKSTSGGTAALGCLVKDYFPEPVTVSWNSGALTSGVHTFPAVLQSSGLYSLSSVVTVPSSSLGTQTYICNVNHKPSNTKVDKKVEPKSCDKTHTCPPCPAPELLNGPVVFLFPPKPKDTLMISRTPEVTCVVVDVSEEDPEVKFNWYVDGVEVHNAKTKPREEQYNSTYRVVSVLTVLHQDWLNGKEYKCKVSNKALPKPIEKTISKAKGQPREPQVYTLPPSREEMTKNQVSLTCLVKGFYPSDIAVEWESNGQPENNYKTTPPVLDSDGSFFLYSKLTVDKSRWQQGNVFSCSVMHEALHNHYTQKSLSLSP
light: DIVMTQSPATLSLSPGERATLSCTSSQSVYHANWLSWFQQKPGQPPKLLIYWASTLAYGVPSRFSGSGSGTDFTLTISSLQPEDAATYYCAGGYGGGRYAFGQGTKVEIKRTVAAPSVFIFPPSDEQLKSGTASVVCLLNNFYPREAKVQWKVDNALQSGNSQESVTEQDSKDSTYSLSSTLTLSKADYEKHKVYACEVTHQGLSSPVTKSFNRGEC
notes: Fc variant of M103205H795-SG1, expressed with M103202L889-SK1 as light chain
B2: M103205H795-MY201 / M103202L889-SK1 (antibody, human IgG1, kappa)
heavy: QVTLKESGPVLVKPTETLTLTCTVSGIDLSHDDISWVRQAPGKGLEWVGIISYAGSTYYASWAKGRLTISKDTSKNQVVLTMTNMDPVDTATYYCARGVPAYSHGGDLWGQGTLVTVSSASTKGPSVFPLAPSSKSTSGGTAALGCLVKDYFPEPVTVSWNSGALTSGVHTFPAVLQSSGLYSLSSVVTVPSSSLGTQTYICNVNHKPSNTKVDKKVEPKSCDKTHTCPPCPAPELLNGPSVFLFPPKPKDTLMISRTPEVTCVVVDVSDEDPEVKFNWYVDGVEVHNAKTKPREEQYNSTYRVVSVLTVLHQDWLNGKEYKCKVSNKALPKPIEKTISKAKGQPREPQVYTLPPSREEMTKNQVSLTCLVKGFYPSDIAVEWESNGQPENNYKTTPPVLDSDGSFFLYSKLTVDKSRWQQGNVFSCSVMHEALHNHYTQKSLSLSP
light: DIVMTQSPATLSLSPGERATLSCTSSQSVYHANWLSWFQQKPGQPPKLLIYWASTLAYGVPSRFSGSGSGTDFTLTISSLQPEDAATYYCAGGYGGGRYAFGQGTKVEIKRTVAAPSVFIFPPSDEQLKSGTASVVCLLNNFYPREAKVQWKVDNALQSGNSQESVTEQDSKDSTYSLSSTLTLSKADYEKHKVYACEVTHQGLSSPVTKSFNRGEC
notes: Fc variant of M103205H795-SG1, expressed with M103202L889-SK1 as light chain; also called MS1032LO06-MY201
B3: M103205H795-MY202 / M103202L889-SK1 (antibody, human IgG1, kappa)
heavy: QVTLKESGPVLVKPTETLTLTCTVSGIDLSHDDISWVRQAPGKGLEWVGIISYAGSTYYASWAKGRLTISKDTSKNQVVLTMTNMDPVDTATYYCARGVPAYSHGGDLWGQGTLVTVSSASTKGPSVFPLAPSSKSTSGGTAALGCLVKDYFPEPVTVSWNSGALTSGVHTFPAVLQSSGLYSLSSVVTVPSSSLGTQTYICNVNHKPSNTKVDKKVEPKSCDKTHTCPPCPAPELLNGPVVFLFPPKPKDTLMISRTPEVTCVVVDVSDEDPEVKFNWYVDGVEVHNAKTKPREEQYNSTYRVVSVLTVLHQDWLNGKEYKCKVSNKALPKPIEKTISKAKGQPREPQVYTLPPSREEMTKNQVSLTCLVKGFYPSDIAVEWESNGQPENNYKTTPPVLDSDGSFFLYSKLTVDKSRWQQGNVFSCSVMHEALHNHYTQKSLSLSP
light: DIVMTQSPATLSLSPGERATLSCTSSQSVYHANWLSWFQQKPGQPPKLLIYWASTLAYGVPSRFSGSGSGTDFTLTISSLQPEDAATYYCAGGYGGGRYAFGQGTKVEIKRTVAAPSVFIFPPSDEQLKSGTASVVCLLNNFYPREAKVQWKVDNALQSGNSQESVTEQDSKDSTYSLSSTLTLSKADYEKHKVYACEVTHQGLSSPVTKSFNRGEC
notes: as for B1

Assays:
Assay in all cases: SPR (Biacore); KD of SG1 divided by KD of the variant for this FcgR;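 further: relative to parent M103205H795-SG1 carrying the SG1 human heavy chain constant region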
[1] = molecular target: T1, cynomolgus monkey FcγRIIb extracellular …
Procedure: (§1) Regarding such interactions, KD values were calculated using the following 1:1 binding model described in BIACORE® T100 Software Handbook BR1006-48 Edition AE.
(§2) The behavior of interacting molecules according to the 1:1 binding model on BIACORE® can be described by Equation 1: Req=C·R max/(KD+C)+RI, wherein, Req is a plot of steady-state binding levels to analyte concentration. C is concentration, RI is bulk refractive index contribution in the sample, and Rmax is analyte binding capacity of the surface. When this equation is rearranged, KD can be expressed as Equation 2: KD=C·Rmax/(Req−RI)−C. KD can be calculated by substituting the values of Rmax, RI, and C into Equation 1 or Equation 2. From the current measurement conditions, RI=0, C=2 μmol/L can be used.
(§3) The variants were expressed using M103202L889-SK1 as the light chain and their affinity was analyzed.

[2] = molecular target: T2, cynomolgus monkey FcγRIIIaS …
Procedure: as §1, §2, §3

[3] = molecular target: T3, cynomolgus monkey FcγRIIa2 …
Procedure: as §1, §2, §3

[4] = molecular target: T4, human FcγRIIaR extracellular domain …
Procedure: as §1, §2, §3

[5] = molecular target: T5, cynomolgus monkey FcγRIIa3 …
Procedure: as §1, §2, §3

[6] = molecular target: T6, human FcγRIIb extracellular domain with …
Procedure: as §1, §2, §3

[7] = molecular target: T9, human FcγRIIIaV extracellular domain with C-terminal His-tag (human, UniProt P08637 17-208)
T9 construct: Expressed in FreeStyle 293 cells and purified; also called FcgRIIIaV; not shown: C-terminal His-tag
T9 sequence (P08637 17-208 F176V): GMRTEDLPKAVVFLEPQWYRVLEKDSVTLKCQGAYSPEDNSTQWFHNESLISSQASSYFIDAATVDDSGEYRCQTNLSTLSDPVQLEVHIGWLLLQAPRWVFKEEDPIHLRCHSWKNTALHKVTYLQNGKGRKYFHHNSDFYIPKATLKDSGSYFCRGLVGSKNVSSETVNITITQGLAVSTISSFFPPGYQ
Procedure: as §1, §2, §3

[8] = molecular target: T7, human FcγRIIaH extracellular domain …
Procedure: as §1, §2, §3

[9] = molecular target: T8, cynomolgus monkey FcγRIIa1 …
Procedure: as §1, §2, §3

| Binder | KD fold (SG1 = 1) [1] [fold] | KD fold (SG1 = 1) [2] [fold] | KD fold (SG1 = 1) [3] [fold] | KD fold (SG1 = 1) [4] [fold] | KD fold (SG1 = 1) [5] [fold] | KD fold (SG1 = 1) [6] [fold] | KD fold (SG1 = 1) [7] [fold] | KD fold (SG1 = 1) [8] [fold] | KD fold (SG1 = 1) [9] [fold] |
| --- | --- | --- | --- | --- | --- | --- | --- | --- | --- |
| B1 | 1.6 | 0.08 | 3.4 | 0.4 | 3.4 | 3.3 | 0.05 | 0.4 | 1.9 |
| B2 | 4.3 | 0.06 | 8.6 | 0.6 | 4.4 | 4.2 | 0.05 | 0.8 | 2.3 |
| B3 | 3.9 | 0.09 | 8 | 0.9 | 7.7 | 6.5 | 0.09 | 0.6 | 5.3 |
